Results on six molecules are retold here after PMC9729196, “An in silico method to assess antibody fragment polyreactivity” (Nature Communications, 2022).

Like-named read-outs stand apart in the source and are kept apart here.

One experiment has as its target insulin (Homo sapiens (assumed; ), UniProt P01308).
Experiment [1] has as its target T1, wild-type human FLAG-AT1R (angiotensin II type 1 receptor) (human, UniProt P30556 1-359).
T1 chain: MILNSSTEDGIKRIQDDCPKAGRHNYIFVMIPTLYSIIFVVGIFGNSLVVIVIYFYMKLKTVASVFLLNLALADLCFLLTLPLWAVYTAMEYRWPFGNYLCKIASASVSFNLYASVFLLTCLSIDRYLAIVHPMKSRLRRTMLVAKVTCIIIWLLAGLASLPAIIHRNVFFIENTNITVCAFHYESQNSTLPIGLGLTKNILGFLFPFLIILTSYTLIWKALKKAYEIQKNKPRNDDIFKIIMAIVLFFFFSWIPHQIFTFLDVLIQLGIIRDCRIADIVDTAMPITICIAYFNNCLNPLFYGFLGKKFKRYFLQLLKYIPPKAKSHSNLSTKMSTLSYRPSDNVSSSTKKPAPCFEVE
In words: FACS.

The target of experiment [2] is T1, wild-type human FLAG-AT1R (angiotensin …).
Experiment [3] concerns the target T2, wild-type human FLAG-AT1R (angiotensin II type 1 receptor) (Homo sapiens, UniProt P30556).
T2 construct: angiotensin II type 1 receptor (AT1R), human, wild type; Cells were gated with the M1 anti-FLAG antibody; also called angiotensin II type I receptor; source: Expi293F TetR cells, stably transfected (pCDNA Zeo-TetO), induced with doxycycline; on cells, or in cell membranes prepared from them
Nature of the experiment: radioligand binding; competition of nanobody with 2 nM [3H]-olmesartan on membranes of FLAG-AT1R cells; 50 mM Tris pH 7.4, 12.5 mM MgCl2, 150 mM NaCl, 0.2% BSA, 90 min, room temperature; Ki from a one-site competition model. Conditions: one partner purified.

For experiment [4], the target named is T2, wild-type human FLAG-AT1R (angiotensin …). In words: flow cytometry on cells; Expi293F cells expressing FLAG-AT1R stained with 20 nM nanobody (C-terminal V5), 1 h, 4 °C, 20 mM Hepes pH 7.4, 150 mM NaCl, 0.1% BSA; detected with Alexa 647 anti-V5; gated for M1 anti-FLAG-positive singlets. Conditions: one partner purified. Background: Flow cytometry measures light scatter and fluorescence of single cells or particles in a stream.

The target of experiment [5] is T1, wild-type human FLAG-AT1R (angiotensin …). Nature of the experiment: [3H]-olmesartan competition, membranes.

Chain of insulin (F8WCM5 25-54, chain 1 of 2): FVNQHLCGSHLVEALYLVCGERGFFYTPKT
Chain of insulin (P01308 90-110, chain 2 of 2): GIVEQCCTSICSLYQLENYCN

B1: F10' (VHH)
VHH: QVQLVESGGGLVQAGGSLRLSCAASGSTFWWYAMGWYRQAPGKERELVATISRGGSTNYADSVKGRFTISRDNAKNTVYLQMNSLKPEDTAVYYCARKTRDIRLDYWGQGTQVTVSS
B1: the binding result with insulin was “binds”.

B2: AT118i4h32 G26D^27 T57I^65 (VHH)
VHH: EVQLVESGGGLVQPGGSLRLSCAASDYIYRRYRMGWYRQAPGKGREFVAAISGGSSINYADSVKGRFTISRDNSKNTVYLQMNSLRAEDTAVYYCAAYRIVSDPRVYWGQGTQVTVSS
notes: as the chain of m1 with the two stated substitutions; its own crystal structure is one of PDB 7T83 and 7T84 (crystallised construct: N-terminal Met-Ala, C-terminal His tag); the superscripts are IMGT numbers; also called G26D^27 T57I^65 variant; source: E. coli BL21(DE3), pET26b, purified (Protein A, Ni-NTA); not shown: V5, C-terminal, kept; His6, C-terminal, kept
B2: binding in experiment [1] was characterised by a dissociation constant (Kd) of 54 nM. For the same molecule, the Ki (commonly a measure of affinity in units of concentration, obtained from inhibition or displacement) in experiment [2] turned out to be 79.4 nM. In experiment [3], the binding result is listed as “binds”.

B3: AT118i4h32 (VHH)
VHH: EVQLVESGGGLVQPGGSLRLSCAASGYIYRRYRMGWYRQAPGKGREFVAAISGGSSTNYADSVKGRFTISRDNSKNTVYLQMNSLRAEDTAVYYCAAYRIVSDPRVYWGQGTQVTVSS
notes: coordinates of the AT118i4h32 structures are deposited as PDB 7T83 and 7T84 (the crystallised construct has an N-terminal Met-Ala and a C-terminal His tag); humanised form of AT118 (eleven substitutions towards human VH3-23); Nanobody antagonist of AT1R from a synthetic library, humanised; also called WT AT118i4h32; wild-type nanobody; source: E. coli BL21(DE3), pET26b, purified (Protein A, …)
Take B3: binding in experiment [1] was characterised by a dissociation constant (Kd) of 58.3 nM. The binding result in experiment [4] is given as “binds”. In experiment [5], this molecule yielded an inhibitory constant (Ki) of 72.4 nM.

B4: AT118i4h32 G26D^27 (VHH)
VHH: EVQLVESGGGLVQPGGSLRLSCAASDYIYRRYRMGWYRQAPGKGREFVAAISGGSSTNYADSVKGRFTISRDNSKNTVYLQMNSLRAEDTAVYYCAAYRIVSDPRVYWGQGTQVTVSS
B4 showed a Ki in experiment [2] of 70.8 nM.

B5: AT118i4h32 T57D^65 (VHH)
VHH: EVQLVESGGGLVQPGGSLRLSCAASGYIYRRYRMGWYRQAPGKGREFVAAISGGSSDNYADSVKGRFTISRDNSKNTVYLQMNSLRAEDTAVYYCAAYRIVSDPRVYWGQGTQVTVSS
notes: as the chain of m1 with the stated substitution; the superscript is the IMGT number; also called T57D^65 substitution; source: E. coli BL21(DE3), pET26b, purified (Protein A, Ni-NTA); not shown: V5, C-terminal, kept; His6, C-terminal, kept
Turning to B5, in experiment [4], the “fold decrease of binding against the wild type” value was 2 fold.

B6: AT118i4h32 T57I^65 (VHH)
VHH: EVQLVESGGGLVQPGGSLRLSCAASGYIYRRYRMGWYRQAPGKGREFVAAISGGSSINYADSVKGRFTISRDNSKNTVYLQMNSLRAEDTAVYYCAAYRIVSDPRVYWGQGTQVTVSS
Molecule B6 came in with a Ki in experiment [2] of 64.6 nM.
